Data taken from patent publication US20180312587A1 (ADURO BIOTECH HOLDINGS EUROPE B V, published 2018).

B1: hSIRPα.50A (antibody, V domains shown)
VH: QVQLQQSGPELVKPGASVRISCKASGFTFTNYYIHWVKQRPGQGLEWIGWIYPGNVNTKYNEKFKAKATLTADKSSTTAYMQLSSLASEDSAVYFCARPTIIATDFDVWGAGTTVTVSS
VL: DIVMTQSHKFMSTSVGDRVNITCKASQGVGTAVGWYQQKPGQSPRLLIYWASTRHTGVPDRFTGSGSGTDFSLAISNVQSEDLADYFCQQYSTYPFTFGGGTNLEIK
notes: light chain constant domain not tied; also called mouse hSIRPα.50A; hSIRPα.50A.mIgG1
B2: KWAR23 (antibody, V domains shown)
VH: EVQLQQSGAELVKPGASVKLSCTASGFNIKDYYIHWVQQRTEQGLEWIGRIDPEDGETKYAPKFQDKATITADTSSNTAYLHLSSLTSEDTAVYYCARWGAYWGQGTLVTVSS
VL: QIVLTQSPAIMSASPGEKVTLTCSASSSVSSSYLYWYQQKPGSSPKLWIYSTSNLASGVPARFSGSGSGTSYSLTISSMEAEDAASYFCHQWSSYPRTFGAGTKLELK

Assays:
[1] = biological target: T1, human SIRPα variant 1 (human, UniProt P78324 31-504); assay: CELISA, CHO-K1 transfectants, point mutant study
T1 construct: full length ORF on transfected CHO-K1 or HEK293 cells; entry includes the signal peptide; also called hSIRPαV1; SIRPαV1
T1 sequence (P78324 31-504 limits assumed, change not shown): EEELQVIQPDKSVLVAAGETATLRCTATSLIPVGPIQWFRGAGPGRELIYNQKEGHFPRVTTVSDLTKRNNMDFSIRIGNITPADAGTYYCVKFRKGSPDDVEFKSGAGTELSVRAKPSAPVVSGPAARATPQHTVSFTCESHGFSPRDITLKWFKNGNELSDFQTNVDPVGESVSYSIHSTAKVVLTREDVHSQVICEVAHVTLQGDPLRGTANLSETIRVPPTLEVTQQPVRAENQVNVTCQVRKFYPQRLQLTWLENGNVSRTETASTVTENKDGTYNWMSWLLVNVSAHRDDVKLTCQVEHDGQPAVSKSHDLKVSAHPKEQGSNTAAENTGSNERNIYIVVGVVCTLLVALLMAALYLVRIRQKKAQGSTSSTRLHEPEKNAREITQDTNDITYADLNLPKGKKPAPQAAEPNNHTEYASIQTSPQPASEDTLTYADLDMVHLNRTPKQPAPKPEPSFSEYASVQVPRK
Procedure: To pinpoint the amino acids for interaction of hSIRPα.50A with the IgV domain, several point mutants of hSIRPαV1 were generated based on single amino acid differences between hSIRPαV1/V2 and hSIRPβ1. […] Amino acids in the hSIRPα IgV domain that are altered in hSIRPβ1 were mutated by using the QuikChange II Site-Directed Mutagenesis Kit (Stratagene) and the full length hSIRPαV1 sequence (SEQ ID NO: 33) as donor cDNA. Binding of hSIRPα.50A to hSIRPαV1 point mutants was tested using CELISA. To this end, CHO-K1 cells were transiently transfected, using Lipofectamine 2000, with cDNA encoding the full length open reading frame of hSIRPαV1 and mutants thereof, and hSIRPβ1 subcloned into the pCI-neo vector. Transfected cells were seeded in culture medium (DMEM-F12 (Gibco) supplemented with 5% New Born Calf Serum (BioWest) and Pen/Strep (Gibco)) in 96-well flat-bottom tissue culture plates and incubated at 37° C., 5% CO₂ and 95% humidity for 24 hours. Subsequently, culture medium was removed and cells were incubated for 1 hour at 37° C., 5% CO₂ and 95% humidity with purified hSIRPα antibodies (used at 10 μg/mL and dilutions thereof). Next, cells were washed with PBS-T and incubated for 1 hour at 37° C., 5% CO₂ and 95% humidity with goat-anti-mouse IgG-HRP (Southern Biotech). […] Reactions were stopped with 0.5 M H₂SO₄ and absorbances were read at 450 and 610 nm. […]

[2] = biological target: T2, hSIRPα expressed on primary human cells (human, UniProt P78324 31-504); assay: flow cytometry, blockade of DyLight488-hCD47/Fc binding to CD14+ enriched monocytes, donor 1
T2 construct: whole, on cells; also called hSIRPα on primary human CD14+ monocytes; on primary human granulocytes
T2 sequence (P78324 31-504): as the sequence (P78324 31-504 limits assumed, change not shown) above
Procedure: In addition, the ability of hSIRPα.50A to block the interaction between hSIRPα and recombinant hCD47/Fc-protein was assessed. For this purpose, CD14+ monocytes were isolated from Ficoll-purified human peripheral blood mononuclear cells (PBMCs) using RosetteSep human monocyte enrichment cocktail (Stemcell). The percentage of monocytes present after the enrichment was determined by flow cytometry on the FACSVerse (BD Biosciences) based on CD14 staining using an APC-Cy7-conjugated mouse-anti-human CD14 detection antibody (BD Biosciences). […] After this labeling procedure, cells were washed two times, resuspended in PBS/1% BSA containing 0.1 μg/mL DAPI (BioLegend), and analysed by flow cytometry on the FACSVerse (BD Biosciences). Data were processed and analysed with FlowJo V10 software (FlowJo, LLC).
To assess the blocking ability of hSIRPα.50A, CD14+ enriched monocytes cells were seeded in 96-well round bottomed tissue culture plates and incubated for 45 minutes with FcR Blocking Reagent (Miltenyi Biotec) and hSIRPα.50A antibody (200 μg/mL and dilutions thereof) in PBS/1% BSA at 4° C. […] After this labeling procedure, cells were washed two times, resuspended in PBS/1% BSA containing 0.1 μg/mL DAPI (BioLegend), and analysed by flow cytometry on the FACSVerse (BD Biosciences). Data were processed and analysed with FlowJo V10 software (FlowJo, LLC).

[3] = biological target: T3, human SIRPβ1 (human, UniProt O00241 30-398); assay: CELISA, CHO-K1 transfectants
T3 construct: also called hSIRPβ1
T3 sequence (O00241 30-398 limits assumed): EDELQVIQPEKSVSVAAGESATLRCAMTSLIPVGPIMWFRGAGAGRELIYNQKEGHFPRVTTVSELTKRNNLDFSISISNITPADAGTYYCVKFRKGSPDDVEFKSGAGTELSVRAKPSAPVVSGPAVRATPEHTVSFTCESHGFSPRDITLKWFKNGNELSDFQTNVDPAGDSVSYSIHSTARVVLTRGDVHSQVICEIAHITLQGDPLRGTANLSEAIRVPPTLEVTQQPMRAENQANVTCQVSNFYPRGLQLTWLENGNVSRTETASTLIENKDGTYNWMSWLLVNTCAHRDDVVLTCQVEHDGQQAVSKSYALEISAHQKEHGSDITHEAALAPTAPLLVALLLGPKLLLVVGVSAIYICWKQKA
Procedure: Reactivity was confirmed using CHO-K1 cells (ATCC CCL-61) that had been transiently transfected, using Lipofectamine 2000, with cDNA encoding the full length open reading frame of hSIRPαV1, hSIRPαV2, hSIRPβ1, hSIRPβL, and hSIRPγ subcloned into the pCI-neo vector (Promega, Madison, Wis.). CHO-K1.hSIRPαV1, CHO-K1.hSIRPαV2, CHO-K1.hSIRPβ1, CHO-K1.hSIRPβL, and CHO-K1.hSIRPγ cells were seeded in culture medium (DMEM-F12 (Gibco) supplemented with 5% New Born Calf Serum (BioWest) and Pen/Strep (Gibco)) in 96-well flat-bottom tissue culture plates and incubated at 37° C., 5% CO₂ and 95% humidity for 24 hours. Subsequently, culture medium was removed and cells were incubated for 1 hour at 37° C., 5% CO₂ and 95% humidity with purified hSIRPα antibodies (used at 10 μg/mL and dilutions thereof). Next, cells were washed with PBS-T and incubated for 1 hour at 37° C., 5% CO₂ and 95% humidity with goat-anti-mouse IgG-HRP (Southern Biotech). Subsequently, cells were washed three times with PBS-T and immunoreactivity against hSIRPαV1, hSIRPαV2, hSIRPβ1, hSIRPβL, and hSIRPγ was visualized with TMB Stabilized Chromogen (Invitrogen). Reactions were stopped with 0.5 M H₂SO₄ and absorbances were read at 450 and 610 nm.
The KWAR23 antibody cross-reacts with all members of the SIRP receptor family tested: it binds to hSIRPαV1, hSIRPαV2, hSIRPβ1, hSIRPβL, and hSIRPγ.

Row | Binder | EC50 [1] | IC50 [2] | EC50 [3]
1 | B1 | 0.535 nM | 4.62 nM | 
2 | B2 |  |  | 0.14 nM
